Consider 1 substance from US20120219547A1.

As usually defined, the pKd is the Kd on a negative log10 scale, so that one unit is a factor of ten.

Assay [1] addresses recombinant human tumor necrosis factor-α (human) (UniProt P01375). In words: cell-based or functional assay.
Assay [2] shares this target. Description: SPR, Biacore X100; antibody captured by goat anti-human IgG Fc on CM5 chip, TNFα as analyte. Background: Surface plasmon resonance follows binding to a sensor surface in real time, without labels.

pKd: −log10 of the molar value.

Chain of recombinant human tumor necrosis factor-α (human) (P01375 77-233 limits assumed): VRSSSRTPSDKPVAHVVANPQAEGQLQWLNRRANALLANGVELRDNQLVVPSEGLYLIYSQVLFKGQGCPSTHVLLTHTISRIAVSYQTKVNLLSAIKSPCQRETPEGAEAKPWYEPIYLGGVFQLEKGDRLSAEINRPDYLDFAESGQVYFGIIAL

On to “Humira (adalimumab, purchased from Abbott Laboratories) (antibody)”, for which, in assay [1], the EC50(ng/mL), neutralization of TNFα killing effect on L929 cell was 19.1 ng/mL and the IC50 (concentration at which 50% of the rhTNFα toxicity to L929 cells can be neutralized) fell in the range of 0.01 to 0.04 µg/mL. In assay [2], the Ka was 9.3e+09 M⁻¹ and the negative-log Kd (pKd) is 9.97.
